Experimental data taken from article PMC4650548.

Target: NBS1 (UniProt O60934)
Experiment: biotin-peptide streptavidin pull-down from lysate

Q: “PHRF1 908-924 (from UniProt Q9P1Y6) pSDpTE peptide” was tested. Which “binding against the reference” value (reference: SDpTE peptide, sites S915) did it give?
A: gained

Q: What about the “binding against the reference” value (reference: pSDTE peptide, sites T917) of the same substance?
A: gained
